Measurements: PMC7502524

Target: PM20D1-flag (epitope-tagged, AAV serotype 8) (mouse) (UniProt Q8C165)
Assay: SEC

Chain of UniProt Q8C165 (Q8C165 25-503): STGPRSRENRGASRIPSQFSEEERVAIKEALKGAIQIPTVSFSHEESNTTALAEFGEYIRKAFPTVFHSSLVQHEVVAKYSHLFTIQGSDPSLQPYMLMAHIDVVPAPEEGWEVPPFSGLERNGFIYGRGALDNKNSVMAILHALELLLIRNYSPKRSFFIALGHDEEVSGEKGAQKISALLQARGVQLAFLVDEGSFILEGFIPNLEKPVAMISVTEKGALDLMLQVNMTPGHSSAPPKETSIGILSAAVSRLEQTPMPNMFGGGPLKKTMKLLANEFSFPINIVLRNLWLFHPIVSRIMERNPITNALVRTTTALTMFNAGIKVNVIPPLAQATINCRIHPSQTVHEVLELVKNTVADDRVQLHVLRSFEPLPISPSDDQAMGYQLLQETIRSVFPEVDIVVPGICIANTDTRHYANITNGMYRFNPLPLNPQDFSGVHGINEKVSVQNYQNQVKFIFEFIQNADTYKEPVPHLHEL

## APOB (APOB-containing low-density lipoproteins of mouse plasma) (natural protein)
  percent of total anti-flag band intensity in APOB+ fractions: 91%
